Source: US20260242497A1 (VIAL HEALTH TECHNOLOGY, published 2026)
Substitutions are numbered along the chain they refer to. Names and notes keep the numbering of the source. Values joined by “and” are separate entries in the source; they are usually repeats but may differ in a detail not shown here. Equal values may be shown once. Blank lines part the entries; values can stand above or below the binder they belong to.

Tests used:
[1] = molecular target: T1, TL1A (antigen of Examples 1 and 2, species not stated) (UniProt O95150 57-251, limits assumed); assay: SPR, Biacore 8K, Protein A chip, antibody captured, antigen as analyte
T1 construct: also called recombinant purified antigen; TNFSF15
T1 sequence (looked up): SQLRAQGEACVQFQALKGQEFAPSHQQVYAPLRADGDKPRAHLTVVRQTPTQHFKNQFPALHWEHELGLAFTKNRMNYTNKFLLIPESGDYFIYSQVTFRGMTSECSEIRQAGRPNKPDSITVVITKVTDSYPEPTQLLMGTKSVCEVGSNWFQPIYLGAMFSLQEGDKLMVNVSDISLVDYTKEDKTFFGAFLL

human FcRn [2] = molecular target: T2, human FcRn (human, UniProt P55899 24-297; P61769 21-119); assay: SPR, Biacore 8K, CM5 chip, antibody immobilised, human FcRn as analyte, pH 6.0
T2 construct: also called neonatal Fc receptor

[3] = molecular target: T3, biotinylated recombinant human TL1A (human, UniProt O95150 57-251, limits assumed, biotinylated (sites not given)); assay: competition ELISA, blocks biotinylated human TL1A (3.5 nM) binding to coated DR3/Fc
T3 sequence: T1 sequence (looked up)

[4] = molecular target: T1, TL1A (antigen of Examples 1 and 2, …); assay: SPR, Biacore 8K, Protein A chip, antibody captured, antigen as analyte (second line)
[5] = molecular target: T3, biotinylated recombinant human TL1A; assay: competition ELISA, blocks biotinylated human TL1A (3.5 nM) binding to coated DcR3/Fc
human FcRn [6] = molecular target: T2, human FcRn; assay: SPR, Biacore 8K, CM5 chip, antibody immobilised, human FcRn as analyte, pH 6.0, steady-state affinity fit
[7] = molecular target: T1, TL1A (antigen of Examples 1 and 2, …); assay: BLI (Gator Bio), tagged antibody on Strep-Tactin XT probes, recombinant purified antigen as analyte, 25 C
[8] = molecular target: T1, TL1A (antigen of Examples 1 and 2, …); assay: cell-based or functional assay
human FcRn [9] = molecular target: T2, human FcRn; assay: SPR, Biacore 8K, CM5 chip, FcRn, pH 6.0

Kd [1]: < 0.0256 nM
Kd (human FcRn [2]): 2430 nM and 2240 nM
IC50 [3]: 0.92 to 1.01 nM
Kd [4]: < 0.0469 nM
IC50 [5]: 1.2 to 1.51 nM
Kd (human FcRn [6]): 2430 nM and 2240 nM
B1: AB_TL1A_02_004 (antibody, human IgG1, kappa)
heavy: QVQLVQSGAEVKKPGASVKVSCKASGYDFTYYGISWVRQAPGQGLEWMGWISPYNGNTHYAQKLQGRVTMTTDTSTRTAYMELRSLRSDDTAVYYCARENYYGSGAYRGGMDVWGQGTTVTVSSASTKGPSVFPLAPSSKSTSGGTAALGCLVKDYFPEPVTVSWNSGALTSGVHTFPAVLQSSGLYSLSSVVTVPSSSLGTQTYICNVNHKPSNTKVDKKVEPKSCDKTHTCPPCPAPEAAGAPSVFLFPPKPKDTLMISRTPEVTCVVVDVSHEDPEVKFNWYVDGVEVHNAKTKPREEQYNSTYRVVSVLTVLHQDWLNGKEYKCKVSNKALPAPIEKTISKAKGQPREPQVYTLPPSREEMTKNQVSLTCLVKGFYPSDIAVEWESNGQPENNYKTTPPVLDSDGSFFLYSKLTVDKSRWQQGNVFSCSVMHEALHNHYTQKSLSLSPG
light: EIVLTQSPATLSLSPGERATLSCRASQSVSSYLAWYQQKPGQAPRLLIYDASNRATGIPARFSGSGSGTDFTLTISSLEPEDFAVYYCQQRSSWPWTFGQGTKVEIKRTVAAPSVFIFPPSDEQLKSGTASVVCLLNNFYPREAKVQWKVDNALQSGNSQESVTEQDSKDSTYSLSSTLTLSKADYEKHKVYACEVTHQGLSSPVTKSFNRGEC

Kd [7]: 5.17 nM and 5 nM
kon [7]: 380000 M⁻¹ s⁻¹
B2: AB_TL1A_02_004 with a C-terminal fused assay tag (prokaryotic in vitro translation, BLI of Example 1) (antibody, human IgG1, kappa)
heavy: B1 heavy
light: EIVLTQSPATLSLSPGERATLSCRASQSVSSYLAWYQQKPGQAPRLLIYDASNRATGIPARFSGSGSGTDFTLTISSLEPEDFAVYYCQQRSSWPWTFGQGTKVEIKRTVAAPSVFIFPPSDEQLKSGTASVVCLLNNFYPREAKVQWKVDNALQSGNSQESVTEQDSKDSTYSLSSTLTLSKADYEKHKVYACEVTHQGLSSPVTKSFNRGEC

Fold Increase (FI) relative to Rituximab (human FcRn [2]): 0.9 fold
Kd (human FcRn [2]): 2440 nM and 2450 nM and 2460 nM
Fold Increase (FI) relative to RVT-3101 (human FcRn [6]): 1 fold
Kd (human FcRn [6]): 2440 nM and 2450 nM and 2460 nM
B3: RVT-3101 (antibody, human IgG1, kappa)
heavy: B1 heavy with P53T, Q62R, K63M
light: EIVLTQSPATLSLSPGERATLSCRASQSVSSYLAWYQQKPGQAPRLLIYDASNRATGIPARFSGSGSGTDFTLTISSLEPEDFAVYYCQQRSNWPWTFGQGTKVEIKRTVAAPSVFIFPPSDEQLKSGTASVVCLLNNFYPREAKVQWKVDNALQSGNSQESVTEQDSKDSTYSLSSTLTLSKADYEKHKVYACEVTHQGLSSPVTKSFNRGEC
notes: Comparator anti-TL1A antibody, no HLE mutation; also called RVT-3101 (Roche); anti-TL1A comparator antibody

Kd (human FcRn [2]): 36 nM and 43.3 nM
Kd (human FcRn [6]): 36 nM and 43.3 nM
B4: AB_TL1A_02_004_HL9 (antibody, human IgG1, kappa)
heavy: B1 heavy with Q318R, M435L, H440K, N441F
light: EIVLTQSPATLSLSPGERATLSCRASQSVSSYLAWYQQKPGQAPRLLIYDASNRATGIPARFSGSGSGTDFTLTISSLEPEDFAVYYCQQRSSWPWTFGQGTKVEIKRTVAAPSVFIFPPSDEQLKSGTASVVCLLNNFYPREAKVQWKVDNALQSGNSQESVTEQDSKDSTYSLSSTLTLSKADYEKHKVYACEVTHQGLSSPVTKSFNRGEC
notes: built from the name and the HLE mutation column

Fold Increase (FI) relative to RVT-3101 (human FcRn [6]): 18.5 fold
Kd (human FcRn [6]): 132 nM
B5: AB_TL1A_02_004_HL4 (antibody, human IgG1, kappa)
heavy: B1 heavy with H440K, N441F
light: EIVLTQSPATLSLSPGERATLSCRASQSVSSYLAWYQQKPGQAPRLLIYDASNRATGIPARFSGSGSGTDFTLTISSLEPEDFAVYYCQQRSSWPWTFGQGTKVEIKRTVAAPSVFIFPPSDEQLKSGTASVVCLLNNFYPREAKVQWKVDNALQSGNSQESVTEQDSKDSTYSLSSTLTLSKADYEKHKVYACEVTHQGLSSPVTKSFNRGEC
notes: as for B4

IC50 (nM), inhibition of TL1A-induced apoptosis of TF-1 cells (Caspase-Glo 3/7) [8]: 0.87 nM
max inhibition of TL1A-induced apoptosis of TF-1 cells [8]: 95%
Kd (human FcRn [9]): 159 nM and 190 nM
Kd [1]: < 0.0262 nM
Kd (human FcRn [2]): 159 nM and 190 nM
IC50 [3]: 0.58 nM
IC50 [5]: 1.3 nM
B6: AB_TL1A_02_004_HL2 (antibody, human IgG1, kappa)
heavy: B1 heavy with M435L, N441S
light: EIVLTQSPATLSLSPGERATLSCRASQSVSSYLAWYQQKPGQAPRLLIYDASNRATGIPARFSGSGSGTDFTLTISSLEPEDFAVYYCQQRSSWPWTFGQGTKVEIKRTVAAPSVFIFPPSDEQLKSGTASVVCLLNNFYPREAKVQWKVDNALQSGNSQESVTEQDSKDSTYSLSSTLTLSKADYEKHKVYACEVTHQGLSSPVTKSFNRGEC
notes: HLE mutations M428L, N434S
